Measured values from patent US5968815.

How the values were obtained:
mouse CD4 (L3T4) (mouse) = mouse CD4 (L3T4) (mouse) (UniProt P06332)
[1] = biological target: Nef (SIV) peptide 40-60 (SIV strain Mac251)
[2] = biological target: Nef (SIV) peptide 84-96 (SIV strain Mac251)
[3] = biological target: Nef (SIV) peptide 1-15 (SIV strain Mac251)
[4] = biological target: Nef (SIV) peptide 16-30 (SIV strain Mac251)
[5] = biological target: Nef (SIV) peptide 221-235 (SIV strain Mac251)
mouse CD8 (LYT2) (mouse) = mouse CD8 (LYT2) (mouse) (UniProt P01731)

anti-CD4 monoclonal antibody, hybridoma GK 1-5 (rat anti-mouse L3T4)
inhibition of the proliferative response of LN cells to beta-galactosidase (mouse CD4 (L3T4) (mouse)): 70%

lymph node cells of Balb/c mice immunised with non-recombinant BCG strain 1173P2 (cells without a defined receptor)
proliferation of lymph node cells (cpm) [1]: < 2500 cpm | proliferation of lymph node cells (cpm) [2]: 5000 cpm | proliferation of lymph node cells (cpm) [3]: < 2500 cpm | proliferation of lymph node cells (cpm) [4]: < 2500 cpm | proliferation of lymph node cells (cpm) [5]: < 2500 cpm

lymph node cells of unimmunized rats (control of FIG. 14) (cells without a defined receptor)
proliferation of lymph node cells (cpm) [1]: < 250 cpm | proliferation of lymph node cells (cpm) [2]: < 250 cpm | proliferation of lymph node cells (cpm) [3]: < 250 cpm | proliferation of lymph node cells (cpm) [4]: < 250 cpm | proliferation of lymph node cells (cpm) [5]: < 250 cpm

anti-CD8 monoclonal antibody, hybridoma H35 17-2 (rat anti-mouse LYT2)
inhibition of the proliferative response of LN cells to beta-galactosidase (mouse CD8 (LYT2) (mouse)): 30%
